B1: ARC19452 (XNA)
mixed: GGAATAUACUUGGCUCGUUAGGUGCGUAUAUA
modifications: 2'-OMe except dC9, dC14, dC16, dC25 and dT5; 3' idT
B2: ARC19472 (XNA)
mixed: GGAAUAUACUUGGCUCGUUAGGUGCGUATAUA
modifications: 2'-OMe except dC9, dC14, dC16, dC25 and dT29; 3' idT
B3: ARC19496 (XNA)
RNA: GGAAUAUACUUGGCUCGUUAGGUGCGUAUAUA
modifications: 2'-OMe except dC9, dC14, dC16; 2'-F C25; 3' idT
B4: ARC33872 (XNA)
RNA: GGAAUAUACUUGGCUCGUUAGGUGCGUAUAUA
modifications: 2'-OMe except dC9, dC14, dC16, dC25 and dU18; 3' idT
B5: ARC19494 (XNA)
RNA: GGAAUAUACUUGGCUCGUUAGGUGCGUAUAUA
modifications: 2'-OMe except dC9, dC16, dC25; 2'-F C14; 3' idT
B6: ARC19453 (XNA)
RNA: GGAAUAUACUUGGCUCGUUAGGUGCGUAUAUA
modifications: 2'-OMe except dC9, dC14, dC16, dC25 and dA6; 3' idT
B7: ARC19463 (XNA)
mixed: GGAAUAUACUUGGCUCGUTAGGUGCGUAUAUA
modifications: 2'-OMe except dC9, dC14, dC16, dC25 and dT19; 3' idT
B8: ARC19451 (XNA)
RNA: GGAAUAUACUUGGCUCGUUAGGUGCGUAUAUA
modifications: 2'-OMe except dC9, dC14, dC16, dC25 and dA4; 3' idT
B9: ARC33876 (XNA)
RNA: GGAAUAUACUUGGCUCGUUAGGUGCGUAUAUA
modifications: 2'-OMe except dC9, dC14, dC16, dC25 and dU29; 3' idT
B10: ARC19459 (XNA)
RNA: GGAAUAUACUUGGCUCGUUAGGUGCGUAUAUA
modifications: 2'-OMe except dC9, dC14, dC16, dC25 and dG13; 3' idT
B11: ARC19450 (XNA)
RNA: GGAAUAUACUUGGCUCGUUAGGUGCGUAUAUA
modifications: 2'-OMe except dC9, dC14, dC16, dC25 and dA3; 3' idT
B12: ARC19454 (XNA)
mixed: GGAAUATACUUGGCUCGUUAGGUGCGUAUAUA
modifications: 2'-OMe except dC9, dC14, dC16, dC25 and dT7; 3' idT
B13: ARC19448 (XNA)
RNA: GGAAUAUACUUGGCUCGUUAGGUGCGUAUAUA
modifications: 2'-OMe except dC9, dC14, dC16, dC25 and dG1; 3' idT
B14: ARC33871 (XNA)
RNA: GGAAUAUACUUGGCUCGUUAGGUGCGUAUAUA
modifications: 2'-OMe except dC9, dC14, dC16, dC25 and dU15; 3' idT
B15: ARC19495 (XNA)
RNA: GGAAUAUACUUGGCUCGUUAGGUGCGUAUAUA
modifications: 2'-OMe except dC9, dC14, dC25; 2'-F C16; 3' idT
B16: ARC19457 (XNA)
mixed: GGAAUAUACUTGGCUCGUUAGGUGCGUAUAUA
modifications: 2'-OMe except dC9, dC14, dC16, dC25 and dT11; 3' idT
B17: ARC33874 (XNA)
RNA: GGAAUAUACUUGGCUCGUUAGGUGCGUAUAUA
modifications: 2'-OMe except dC9, dC14, dC16, dC25 and dU23; 3' idT
B18: ARC19455 (XNA)
RNA: GGAAUAUACUUGGCUCGUUAGGUGCGUAUAUA
modifications: 2'-OMe except dC9, dC14, dC16, dC25 and dA8; 3' idT
B19: ARC19464 (XNA)
RNA: GGAAUAUACUUGGCUCGUUAGGUGCGUAUAUA
modifications: 2'-OMe except dC9, dC14, dC16, dC25 and dA20; 3' idT
B20: ARC19458 (XNA)
RNA: GGAAUAUACUUGGCUCGUUAGGUGCGUAUAUA
modifications: 2'-OMe except dC9, dC14, dC16, dC25 and dG12; 3' idT
B21: ARC19475 (XNA)
RNA: GGAAUAUACUUGGCUCGUUAGGUGCGUAUAUA
modifications: 2'-OMe except dC9, dC14, dC16, dC25 and dA32; 3' idT
B22: ARC33868 (XNA)
RNA: GGAAUAUACUUGGCUCGUUAGGUGCGUAUAUA
modifications: 2'-OMe except dC9, dC14, dC16, dC25 and dU7; 3' idT
B23: ARC19473 (XNA)
RNA: GGAAUAUACUUGGCUCGUUAGGUGCGUAUAUA
modifications: 2'-OMe except dC9, dC14, dC16, dC25 and dA30; 3' idT
B24: ARC19474 (XNA)
mixed: GGAAUAUACUUGGCUCGUUAGGUGCGUAUATA
modifications: 2'-OMe except dC9, dC14, dC16, dC25 and dT31; 3' idT
B25: ARC33867 (XNA)
RNA: GGAAUAUACUUGGCUCGUUAGGUGCGUAUAUA
modifications: 2'-OMe except dC9, dC14, dC16, dC25 and dU5; 3' idT
B26: ARC19470 (XNA)
mixed: GGAAUAUACUUGGCUCGUUAGGUGCGTAUAUA
modifications: 2'-OMe except dC9, dC14, dC16, dC25 and dT27; 3' idT
B27: ARC19471 (XNA)
RNA: GGAAUAUACUUGGCUCGUUAGGUGCGUAUAUA
modifications: 2'-OMe except dC9, dC14, dC16, dC25 and dA28; 3' idT
B28: ARC19467 (XNA)
mixed: GGAAUAUACUUGGCUCGUUAGGTGCGUAUAUA
modifications: 2'-OMe except dC9, dC14, dC16, dC25 and dT23; 3' idT
B29: ARC33873 (XNA)
RNA: GGAAUAUACUUGGCUCGUUAGGUGCGUAUAUA
modifications: 2'-OMe except dC9, dC14, dC16, dC25 and dU19; 3' idT
B30: ARC33875 (XNA)
RNA: GGAAUAUACUUGGCUCGUUAGGUGCGUAUAUA
modifications: 2'-OMe except dC9, dC14, dC16, dC25 and dU27; 3' idT
B31: ARC19466 (XNA)
RNA: GGAAUAUACUUGGCUCGUUAGGUGCGUAUAUA
modifications: 2'-OMe except dC9, dC14, dC16, dC25 and dG22; 3' idT
B32: ARC19460 (XNA)
mixed: GGAAUAUACUUGGCTCGUUAGGUGCGUAUAUA
modifications: 2'-OMe except dC9, dC14, dC16, dC25 and dT15; 3' idT
B33: ARC19449 (XNA)
RNA: GGAAUAUACUUGGCUCGUUAGGUGCGUAUAUA
modifications: 2'-OMe except dC9, dC14, dC16, dC25 and dG2; 3' idT
B34: ARC19465 (XNA)
RNA: GGAAUAUACUUGGCUCGUUAGGUGCGUAUAUA
modifications: 2'-OMe except dC9, dC14, dC16, dC25 and dG21; 3' idT
B35: ARC19468 (XNA)
RNA: GGAAUAUACUUGGCUCGUUAGGUGCGUAUAUA
modifications: 2'-OMe except dC9, dC14, dC16, dC25 and dG24; 3' idT
B36: ARC33877 (XNA)
RNA: GGAAUAUACUUGGCUCGUUAGGUGCGUAUAUA
modifications: 2'-OMe except dC9, dC14, dC16, dC25 and dU31; 3' idT
B37: ARC19461 (XNA)
RNA: GGAAUAUACUUGGCUCGUUAGGUGCGUAUAUA
modifications: 2'-OMe except dC9, dC14, dC16, dC25 and dG17; 3' idT

Target: TFPI (tissue factor pathway inhibitor, full-length) (Homo sapiens, UniProt P10646 SEQ:1-276)
Experiment: competition; dot-blot
Settings: tags: American Diagnostica 4500PC/4900PC, E. coli expressed
Procedure: Each molecule was evaluated for binding to tissue factor pathway inhibitor (TFPI) in a binding-competition assay. For these experiments, 10 nM human TFPI (American Diagnostica, Stamford, Conn., catalog #4500PC) was incubated with trace amounts of radiolabeled ARC17480 and 5000 nM, 1666.67 nM, 555.56 nM, 185.19 nM, 61.73 nM, 20.58 nM, 6.86 nM, 2.29 nM, 0.76 nM or 0.25 nM of unlabeled competitor aptamer. ARC17480 was included as a competitor in every experiment as a control. For each molecule, the percentage of radiolabeled ARC17480 bound at each competitor aptamer concentration was used for analysis. The percentage of radiolabeled ARC17480 bound was plotted as a function of aptamer concentration and fit to the equation y=(max/(1+x/IC₅₀))+int, where y=the percentage of radiolabeled ARC17480 bound, x=the concentration of aptamer, max=the maximum radiolabeled ARC17480 bound, and int=the y-intercept, to generate an IC₅₀ value for binding-competition. The IC₅₀ of each aptamer was compared to the IC₅₀ of ARC17480 that was evaluated in the same experiment. A substitution was considered tolerated in the binding-competition assay if the IC₅₀ of that molecule was not more than 5-fold greater than that of ARC17480 evaluated in the same experiment. Tolerated substitutions are indicated in Table 37 as meeting the assay criteria (“yes”) or not meeting the assay criteria (“no”).

TFPI (tissue factor pathway inhibitor, full-length), sequence (P10646 29-304): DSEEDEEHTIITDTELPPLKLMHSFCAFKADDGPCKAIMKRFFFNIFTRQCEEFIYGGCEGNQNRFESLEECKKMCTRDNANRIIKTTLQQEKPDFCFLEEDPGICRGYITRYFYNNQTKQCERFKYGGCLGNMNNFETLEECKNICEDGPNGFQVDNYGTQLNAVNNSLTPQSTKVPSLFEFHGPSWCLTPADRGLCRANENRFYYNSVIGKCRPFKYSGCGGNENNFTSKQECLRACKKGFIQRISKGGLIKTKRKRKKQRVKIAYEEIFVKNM

Binding signal, ≤ 5 fold IC50 vs ARC17480:
B1
B2
B3
B4
B5
B6
B7
B8
B9
B10
B11
B12
B13
B14
B15
B16
B17
B18
B19
B20
B21
B22
B23
B24
B25
B26
B27
B28
B29
B30
B31
B32
B33
B34
B35
B36
B37
